The nature of the data set: soluble on expression in E. coli; label from the status in PepcDB or PDB records.
On to “MANTLFDKIWDAHVVQKVEEGPTQLYIDRLYCHEVTSPQAFAGLRARGVKVFRPDHVYCMPDHNTPTHDQDKPIEDPVSKTQVDTLAKNAKDFGLAHFGMMDKRNGIIHVVGPERGLTLPGMTIVCGDSHTSTHGAMGAVAFGIGTSEVEMVLASQCILQSRPKT”, for which the “soluble on expression in E. coli” value is on record as “not soluble”.

With “GPGSMMSLPVEAVKEFLLKLQDDICHAIEAEDEQATFMEDKWTREGGGGGRTRVIANGAVIEKGGVNFSHVYGKGLPGSSTERHPDMAGCNYQAMGVSLVIHPKNPHVPTSHANVRLFVAEKEGKEPVWWFGGGFDLTPYYAVEEDCYYFHHVAQELCRPFGADVYERFKAWCDEYFFIPHRNEARGIGGLFFDDLNEWPFEKCFAFMQAVGKGFIDAYIPIVNRRKNTPYTEQQVEFQEFRRGRYAEFNLVIDRGTKFGLQSGGRTESILMSLPPRARWGYNWHPEPGTPEARLTEYFLTKKQWV”, the “soluble on expression in E. coli” value is listed as “soluble”.

As to “YTDKYDKINLQEILENKRLLESYMDCVLGKGKCTPEGKELKDHLQEALETGCEKCTEAQEKGAETSIDYLIKNELEIWKELTAHFDPDGKWRKKYEDRAKAKGIVIPE”, the “soluble on expression in E. coli” value was “soluble”.

As to “MGSDKIHHHHHHMRWFHKKGELARDGWQSVVDATTPGWEYTGIRIAELGSGESLELNDTGVERIFIPLQGSFDVAHHGQVTHLHGRKSVFDGPTDVLYLPTGQTATLSGQGRVAVAEAPTQEPKEWKYIAPAETPVELRGAGRSSRQVHNFGTPEALDAARLIVCEVITPGENWSSYPPHKHDEHIPGHESKLEEIYYFESAPSRVGGRAEAAEGAFGMFSTYSSPAGEIDINAMVYSGDIALVPFGYHGPAVAAPGYDLYYLNVMAGPDPERIWLINDDPAHAWVRDTWTGQAFDDRLPYENANKEG”, the “soluble on expression in E. coli” value is listed as “not soluble”.

Turning to “SQGRKPSSELISYQRLHPNEFEIKNLGVLPQSHVIRMERVRFADDIPVAYEITSIPEKIIRGFKESEITEHFFKTLTDNGYEIGKSQQTISASLANSSLAKHLKVKTGDALLSLTQISFLQDGQAFEYVRSYYVGDRFE”, the “soluble on expression in E. coli” value is given as “not soluble”.

“MLKNTYIHIPGVGKALEQKIWASGIHTWDEFLEMEDRVLIPSVKKARICEGIKVSSSHLAAKDCFFFSQRLPSAEHWRAYSLFSDSVAFFDIETTGLSPCRDKITVVGIYNGNEVKTYVRGTNLEDLVEEFSRYRLLVSFNGARFDIPFIKSEFPEIEFKQLHIDLMYPLRRIGYGGGLKKIEKLLGICRSEDTDGMDGFDAVRLWKKYEKGDLEALNLLVKYNREDIVNLKTIIELTYPKMVENALKILEHHHHHH”: the “soluble on expression in E. coli” value is on record as “not soluble”.

Turning to “FGIIRGLMMHVTLVEINVHDDKVEQFIDVFRQNHLGSIKEPGNLRFDVLQDPQVLTRFYIYEAYVDEQAVAFHKTTPHYKTCVEQLEPLMTGPRTKKVFMGL”, the “soluble on expression in E. coli” value is on record as “not soluble”.

Turning to “MGSDKIHHHHHHMNRVVVGLQWGDEGKGKVVTYLSRYHDIVARFSGGANAGHTVNYGDFKVIHHLLPSADFTKNRGIAIGSGVLLDPQVLTEELRELKEKFPDYSGEIFISESAHVVLPVHKEMDRIIDEVLKIGTTKRGIGPACADRVMRVNVRVAELGNEEKLRYFLEKNLSLKKIYGVDFDAEKMMGDLSTFYETIKDFVVSPVQLKRILEEKSVLFEGTQGVLLDLDVGTYPYVTSMNCSSSGVSAGMGFPVEVDEVLGVFKAYTTRVGEGPFPTELTGEEGEKLRKAGHEYGSTTGRPRRCGWLDLPLLRYAIEISGVDSLVMTKADVLNGFEKIKVCVRYSDGRDLVSLRDLEKKEPVYEVFDGWKSLEDKNFERFVDFIERETGRPVRYISTGEKLEDIVEV”, the “soluble on expression in E. coli” value is “not soluble”.

In the case of “SEKVNQTFFLSHGSPTLSIDDSLEARQFFKSWTQKVLPQKPKSILVISAHWDTKFPSVNTVLRNNTIHDFSGFPDPMYKLKYEAPGAIELGKRVKELLMKEGGMKRVDEDTKRGLDHGAWVPLMLMYPEADIPICQLSVQSNQNGSYHYNMGKALASLKDEGVLIIGSGSATHNLRKLDFNITDGSPVPWALEFDHWLRDSLLQGRYGDVNEWEEKAPNAKMAHPWPEHLYPLHVVMGAAGGDAKAEQIHTSWQLGTLSYSSYSFTSSL”, the “soluble on expression in E. coli” value is “soluble”.

With “MFGNSYGGYLANLCAKIAPWSIDFILDNSSFVNLFGNIFRLIGFGKEIDFTRYHGTYDDTLFKNIFLYLSDKTYWNNNKFSKNYFSNARKIIREPLNKEHLIIQSLYPNPKYILYHSIFDERSPFKNKENFVHILKELNFKVEFFAISQVDNKFIKNLNHGMGLSTKLFFKKHLLQILKEPLQDKICKKEVSYKCDELVYTFKEENHQIILNITN”, the “soluble on expression in E. coli” value was “not soluble”.

As for “MGKKYKNIVLLKGLEVINDYHFRMVKSLLSNDLKLNLKMREEYDKIQIADLMEEKFRGDAGLGKLIKIFEDIPTLEDLAETLKKEKLKVKGPALSRKRKKEVDATSPAPSTSSTVKTEGAEATPGAQKRKKSTKEKAGPKGSKVSEEQTQPPSPAGAGMSTAMGRSPSPKTSLSAPPNTSSTENPKTVAKCQVTPRRNVLQKRPVIVKVLSTTKPFEYETPEMEKKIMFHATVATQTQFFHVKVLNTSLKEKFNGKKIIIISDYLEYDSLLEVNEESTVSEAGPNQTFEVPNKIINRAKETLKIDILHKQASGNIVYGVFMLHKKTVNQKTTIYEIQDDRGKMDVVGTGQCHNIPCEEGDKLQLFCFRLRKKNQMSKLISEMHSFIQIKKKTNPRNNDPKSMKLPQEQSQLPNPSEASTTFPESHLRTPQMPPTTPSSSFFTKKSEDTISKMNDFMRMQILKEGSHFPGPFMTSIGPAESHPHTPQMPPSTPSSSFLTTLKPRLKTEPEEVSIEDSAQSDLKEVMVLNATESFVYEPKEQKKMFHATVATENEVFRVKVFNIDLKEKFTPKKIIAIANYVCRNGFLEVYPFTLVADVNADRNMEIPKGLIRSASVTPKINQLCSQTKGSFVNGVFEVHKKNVRGEFTYYEIQDNTGKMEVVVHGRLTTINCEEGDKLKLTCFELAPKSGNTGELRSVIHSHIKVIKTRKNKKDILNPDSSMETSPDFFF”, the “soluble on expression in E. coli” value is reported as “soluble”.

Turning to “MFVRFASAQSVPPGDIQTQPGTKIVFNAPYDDKHTYHIKVINSSARRIGYGIKTTNIKRLGVDPPCGVLDPKEAVLLAVSCDAFAFGQEDTNNDRITVEWTNTPDGAAKQFRREWFQGDGMVRRKNLPIEYNP”, the “soluble on expression in E. coli” value was “soluble”.

Consider “MSKVKIELFTSPMCPHCPAAKRVVEEVANEMPDAVEVEYINVMENPQKAMEYGIMAVPTIVINGDVEFIGAPTKEALVEAIKKRL”, for which the “soluble on expression in E. coli” value is on record as “soluble”.

Turning to “MSLAYQALYRVFRPQSFQDVVGQEHVTKTLKNAIVQNKTSHAYLFSGPRGTGKTSAAKIFAKAINCEHGHDGEPCNECEICKGTTDGSIPDVLEIDAASNNGVEEIRDIREKVKYAPTVAKYKVYIIDEVHMLSTGAFNALLKTLEEPPKHVIFILATTEPHKLPLTIISRVQRFDFKRITTQDIIGRLKFILEEEKIPYDEKALMIVARAAEGGMRDALSLLDQVISYGSEEVTVEDALEITGSVAQNLLTKLVSAAFDGDAAEAISTLTALLAEGKDPVRLVEDLLVFFRDVLLYQKAPNLEETLERALIDDDFVALAKRADSLKVYEFVKILNTAQQQMRFSNHPGIYVEVALIQLTQAGEGHHHHHH”, the “soluble on expression in E. coli” value was “soluble”.

Regarding “MEVVLHEGDAKDWVYKGEGAANLILSYTGSSPSMLGKVLRVKKILKDKGQPAPNCIVFSSHEEHLWGKIPGLLESVKNDCLPQAYATIVMSQHLGANHVDGGVRVRVSKNFFELAGKNVLDNRPAWRVNASAIDAGADSALLISDHTLFSGNPRGSSCIAVEIKAKCGFLPSSEYISKENSIKKQVTRYKMHQHLKFHLGEISKTSEYDPLDLFSGSKERIHMAIKSFFSTPQNNFRIFVDGSLVFGGMGGGADSVHPNETEKCLEDLSKVTGLQLSDFIELLSEAIFKSGVLGKLLATQKLDDHDIEGAIHLYYNIISQPCLVCKSITDTELLRKYSTLHSLPLDKSEKIVRDFLISATAKDCSLMISFRPRQSGTTDSEYDSVFLDSVNQSYDYKAYFIDLDVKPLDKMVLLPSRENV”, the “soluble on expression in E. coli” value is listed as “soluble”.

In the case of “MGNQMSVPQRVEGQENEPEAETYQDNASALNGVPVVVSTHTVQHLEEVDLGISVKTDNVATSSPETTEISAVADANGKNLGKEAKPEAPAAKSRFFLMLSRPVPGRTGDQAADSSLGSVKLDVSSNKAPANKDPSESWTLPVAAGPGQDTDKTPGHAPAQDKALSAARDPTLLPPETGGAGGEAPSKPKDSSFFDKFFKLDKGQEKVPGDSQQEAKRAEHQDKVDEVPGLSGQSDDVPAGKDIVDGKEKEGQELGTADCSVPGDPEGLETAKDDSQAAAIAENNNSIMSFFKTLVSPNKAETKKDPEDTGAEKSPTTSADLKSDKANFTSQETQGAGKNSKGCNPSGHTQSVTTPEPAKEGTKEKSGPTSLPLGKLFWKKVVCESPVEIIKSKEVESALQTVDLNEGDAAPEPTEAKLKREESKPRTSLMAFLRQMSVKGDGGITHSEEINGKDSSCQTSDSTEKTITPPEPEPTGAPQKGKEGSSKDKKSAAEMNKQKSNKQEAKEPAQCTEQATVDTNSLQNGDKLQKRPEKRQQSLGGFFKGLGPKRMLDAQVQTDPVSIGPVGKSK”, the “soluble on expression in E. coli” value is “soluble”.

Turning to “MSELYVAECNAAKARLEVETECRRIIADNYEKVLERAKEYSKKLEAPILAKICEVGYFCGAHVVRTNQVTMEMGANYYGECSIHTAEKILDRRVSEMRRQREEGLDSIRMLDDKIKFAQDNFSSVSIDGGPIEIVEKYDEEMEKLFYQNRKNKKMSQNDEQNEKIIEKNKLNGDQDHNDVMNRLEELEKLEQDNDEMEEAPIPKPFEVSNEDLQDLGKLEEVEEVEQDPTDKKLRFGMNERLLAQPGVTQKEMERLLDFLDTCDEESSDEEYDEDEEEGDDDEENLNNSVEELDSDDYASDDNIEKSNNSDQQLKSKKIETQVIKVEEIVEETVTKTTVKRKKSGVRFAQQLENVKTFHQTDTVEIKEEDSVIETKSILRSTEPTPVDRSALEPEQKELAAMSTMTFPGEIVEKNPYECEPSTSRDPAPVITEKKVSKFRASRHRN”, the “soluble on expression in E. coli” value was “not soluble”.

Consider “VKAKKQETAATMKDVALKAKVSTATVSRALMNPDKVSQATRNRVEKAAREVGYLPQPMGRNVKRNESRTILVIVPDICDPFFSEIIRGIEVTAANHGYLVLIGDCAHQNQQEKTFIDLIITKQIDGMLLLGSRLPFDASIEEQRNLPPMVMANEFAPELELPTVHIDNLTAAFDAVNYLYEQGHKRIGCIAGPEEMPLCHYRLQGYVQALRRCGIMVDPQYIARGDFTFEAGSKAMQQLLDLPQPPTAVFCHSDVMALGALSQAKRQGLKVPEDLSIIGFDNIDLTQFCDPPLTTIAQPRYEIGREAMLLLLDQMQGQHVGSGSRLMDCELIIRGSTRALP”, for which the “soluble on expression in E. coli” value is “soluble”.

Regarding “MSLSELLDLSFLSEEEKDLILSVLQRDEEVRKADEKRIRRLKNELLEIKRKGAKRGSQHYSDRTCARCQESLGRLSPKTNTCRGCNHLVCRDCRIQESNGTWRCKVCAKEIEMKKATGDWFYDQKVNRFAYRTGSEIIRMSLRHKPAVSKREGHHHHHH”, the “soluble on expression in E. coli” value was “not soluble”.

As to “VIALLAPGQGSQTEGMLSPWLQLPGAADQIAAWSKAADLDLARLGTTASTEEITDTAVAQPLIVAATLLAHQELARRCVLAGKDVIVAGHSVGEIAAYAIAGVIAADDAVALAATRGAEMAKACATEPTGMSAVLGGDETEVLSRLEQLDLVPANRNAAGQIVAAGRLTALEKLAEDPPAKARVRALGVAGAFHTEFMAPALDGFAAAAANIATADPTATLLSNRDGKPVTSAAAAMDTLVSQLTQPVRWDLCTATLREHTVTAIVEFPPAGTLSGIAKRELRGVPARAVKSPADLDELANL”, the “soluble on expression in E. coli” value was “not soluble”.

The record behind these values is the DeepSol protein solubility set.
